Here are results for two molecules from PMC4421793, “A secretory kinase complex regulates extracellular protein phosphorylation” (eLife, 2015).

B1: Fam20C (93–584), recombinant (enzyme, human, UniProt Q8IXL6 93-584, looked up)
chain: DFSSDPSSNLSSHSLEKLPPAAEPAERALRGRDPGALRPHDPAHRPLLRDPGPRRSESPPGPGGDASLLARLFEHPLYRVAVPPLTEEDVLFNVNSDTRLSPKAAENPDWPHAGAEGAEFLSPGEAAVDSYPNWLKFHIGINRYELYSRHNPAIEALLHDLSSQRITSVAMKSGGTQLKLIMTFQNYGQALFKPMKQTREQETPPDFFYFSDYERHNAEIAAFHLDRILDFRRVPPVAGRMVNMTKEIRDVTRDKKLWRTFFISPANNICFYGECSYYCSTEHALCGKPDQIEGSLAAFLPDLSLAKRKTWRNPWRRSYHKRKKAEWEVDPDYCEEVKQTPPYDSSHRILDVMDMTIFDFLMGNMDRHHYETFEKFGNETFIIHLDNGRGFGKYSHDELSILVPLQQCCRIRKSTYLRLQLLAKEEYKLSLLMAESLRGDQVAPVLYQPHLEALDRRLRVVLKAVRDCVERNGLHSVVDDDLDTEHRAASAR
notes: human Fam20C, residues 93-584; also called recombinant Fam20C; source: Hi5 insect cells, purified from the conditioned medium (MBP tag removed by TEV protease digestion and gel filtration)
B2: Fam20A (63–529), recombinant (domain or fragment, human, UniProt Q96MK3 63-529, looked up)
chain: DPGTIVHNFSRTEPRTEPAGGSHSGSSSKLQALFAHPLYNVPEEPPLLGAEDSLLASQEALRYYRRKVARWNRRHKMYREQMNLTSLDPPLQLRLEASWVQFHLGINRHGLYSRSSPVVSKLLQDMRHFPTISADYSQDEKALLGACDCTQIVKPSGVHLKLVLRFSDFGKAMFKPMRQQRDEETPVDFFYFIDFQRHNAEIAAFHLDRILDFRRVPPTVGRIVNVTKEILEVTKNEILQSVFFVSPASNVCFFAKCPYMCKTEYAVCGNPHLLEGSLSAFLPSLNLAPRLSVPNPWIRSYTLAGKEEWEVNPLYCDTVKQIYPYNNSQRLLNVIDMAIFDFLIGNMDRHHYEMFTKFGDDGFLIHLDNARGFGRHSHDEISILSPLSQCCMIKKKTLLHLQLLAQADYRLSDVMRESLLEDQLSPVLTEPHLLALDRRLQTILRTVEGCIVAHGQQSVIVDGPVEQ
notes: human Fam20A, residues 63-529; Cloned into a modified pI-secSUMOstar vector in which the SUMO tag was replaced by an MBP tag and a TEV site; also called recombinant Fam20A; source: Hi5 insect cells, purified from the conditioned medium (MBP tag removed by TEV protease digestion and gel filtration)

Series [1] deals with the molecule itself. As to the kind of experiment: SEC; one purified protein alone on Superdex 200 in 25 mM Tris-HCl pH 7.4, 150 mM NaCl; oligomeric state judged from the elution profile.
Series [2] addresses B1. The series is described as follows: cell-based or functional assay.
Series [3] deals with B1. The series is described as follows: SEC; two purified proteins (1 mg/ml each) incubated on ice for 2 hr, then Superdex 200 in 25 mM Tris-HCl pH 7.4, 150 mM NaCl; fractions on SDS-PAGE, Coomassie. The note with it: both partners purified.

On to B1, for which the “stoichiometry N” value in series [1] was determined as 2.
Turning to B2, in series [2], the “Km of Fam20C (2 μg/ml) for ENAM (173–277) S191A with excess Fam20A (40 μg/ml); 14.6 μM without Fam20A, a ∼2.5-fold decrease” value was determined as 5.6 µM and the “kcat of Fam20C (2 μg/ml) for ENAM (173–277) S191A with excess Fam20A (40 μg/ml); 0.04 s^−1 without Fam20A, a 19-fold increase” value is 0.76 s⁻¹. Also, the “stoichiometry N” value in series [3] was 1.
